Laboratory results reported in publication doi:10.1101/2024.08.19.608659.

Biological target: hATP5A1 pre-protein (F1-ATP synthase subunit alpha precursor) (Homo sapiens, UniProt P25705)
Test: EMSA

CUUUCCGCUCGGCUGUUUUCCUGCGCAGGAGCCGCA (ssRNA) [RPL13 RNA ligand]
binding result: binds
